Source: CN1903878A (UNIV FUDAN, dated 2007)

Biological target: T1, 重组冠状病毒S蛋白 (SARS冠状病毒棘突蛋白部分片段, 氨基酸位点257~573) (SARS冠状病毒, UniProt P59594 257-573)
T1 construct: range 257-573; also called 重组S蛋白; 重组抗原S蛋白
Assay: SPR (Biacore 3000), recombinant S protein immobilised, Fab at 2.5-0.3125 μg/ml

B1: 抗冠状病毒人源性基因工程抗体Fab片段AS3-3 (Fab, V domains shown)
VH: EVKLVESGGGVVQPGRSLRLSCAASGFRFSTYAIHWVRQAPGKGLEWVARISHDGSQTHYADSVQGRFGVSRDNSNYTAYVQLNSLRPDDTAVYFCARAYSSTPDYGMDVWGQGTAVTVSS
VL: EIVMTQSPLSPVTLGQPASISCKSSQSLVDTNGNTYLIWFHQRPGQSPRRLIYQVSKRDSGVPDRFSGSGTDFTLKISRVEAEDVGVYFCMQGTYRPPTLGQGTKVEIKR
notes: also called 阳性克隆AS3-3; 抗SARS病毒人源性抗体IgG Fab片段
Binder B1 has a Ka of 5.05e+07 M⁻¹, a Kd of 19.8 nM and a koff of 0.00306 s⁻¹. For the same binder, the kon was 154000 M⁻¹ s⁻¹.
